According to the supplement of paper PMC10567573:
± gives the standard deviation.

Test: protein stability index of a GFP-peptide fusion (GPS, HEK-293T) (PSI 1-6); higher = more stable
[1] = treatment: DMSO, c terminus: a fixed tail appended
[2] = treatment: MLN4924 1 uM, 8 h, c terminus: a fixed tail appended
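Note: 24-mer peptide tiles fused after GFP, lentivirally expressed, FACS-sorted into six equal bins by GFP/DsRed ratio, decoded by Illumina sequencing, PSI is the read-weighted mean bin number.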

## WRKRFTEQPITDFCSVIRINSTAP [ZNF277]
[1]
  protein stability index: 2.48 ± 0.55
[2]
  protein stability index: 2.23 ± 0.087

## IDKGDESWVTDMCKVGASSDPCGQ [PNLIPRP1]
[1]
  protein stability index: 4.52 ± 0.48
[2]
  protein stability index: 4.66 ± 0.36

## IPQQQGMRPPMPPHGQYGGHHQGM [ZNF207]
[1]
  protein stability index: 3.71 ± 0.24
[2]
  protein stability index: 3.88 ± 0.11

## AVQQVQRLPFLSSSNLSLDVLRGN [POMP]
[1]
  protein stability index: 2.87 ± 0.24
[2]
  protein stability index: 2.98 ± 0.35

## HCRENAHDKIRPISSIGQVQSYME [SPACA9]
[1]
  protein stability index: 3.44 ± 0.22
[2]
  protein stability index: 3.29 ± 0.26

## LANNQCMATESVDHELGRCTDSVV [EHMT1]
[1]
  protein stability index: 4.74 ± 0.093
[2]
  protein stability index: 4.71 ± 0.074

## IAMAVYTYLRLIVDHHGTAQLQAL [INTS3]
[1]
  protein stability index: 3.35 ± 0.51
[2]
  protein stability index: 3.17 ± 0.14

## VSIKEAAGSSNLPAPERTMAGLSK [VENTX]
[1]
  protein stability index: 4.28 ± 0.3
[2]
  protein stability index: 4.33 ± 0.19

## GAHFPQVPGGAVRVAAAAGSGPSP [PI4K2A]
[1]
  protein stability index: 4.53 ± 0.14
[2]
  protein stability index: 4.48 ± 0.088

## EKLIQERSQQQEPLLCPSYQSYFK [KRT34]
[1]
  protein stability index: 3.36 ± 0.23
[2]
  protein stability index: 3.41 ± 0.32

## SWGWDLGRSRLYHDGKNQPGVAYP [SPSB4]
[1]
  protein stability index: 2.72 ± 0.29
[2]
  protein stability index: 2.56 ± 0.26

## RFNRIGLPPKVGSFQLFVEGYKDA [PI4K2A]
[1]
  protein stability index: 2.39 ± 0.29
[2]
  protein stability index: 2.77 ± 0.51

## GCRTTHSNQEVLQSCLLVIFATKP [PYCR3]
[1]
  protein stability index: 2.64 ± 0.68
[2]
  protein stability index: 2.65 ± 0.91

## ETVPWFPKKISDLDHCANRVLMYG [TPH1]
[1]
  protein stability index: 2.38 ± 0.24
[2]
  protein stability index: 2.46 ± 0.26

## DNLGYRTGYPYRYPALREKSKKYS [ADD1]
[1]
  protein stability index: 3.56 ± 0.13
[2]
  protein stability index: 3.69 ± 0.1

## LLPESGIVADIELENVLDPDSFYE [TFE3]
[1]
  protein stability index: 4.47 ± 0.3
[2]
  protein stability index: 4.76 ± 0.49

## MQPSKPQQPSLNTMIQQQNMQQPM [CLINT1]
[1]
  protein stability index: 4.1 ± 0.13
[2]
  protein stability index: 4.34 ± 0.46

## LEYRFYEQLGSGDGIPQVYYFGPC [CSNK1G3]
[1]
  protein stability index: 2.19 ± 0.29
[2]
  protein stability index: 2.13 ± 0.2

## KDWLEGTVRGATGIFPLSFVKILK [NCF4]
[1]
  protein stability index: 2.49 ± 0.5
[2]
  protein stability index: 2.38 ± 0.52

## REPPQAVSIKEAAGSSNLPAPERT [VENTX]
[1]
  protein stability index: 5.26 ± 0.3
[2]
  protein stability index: 5.2 ± 0.54

## VSSSQDGKVIVWDSFTTNKEHAVT [GNB5]
[1]
  protein stability index: 3.51 ± 0.23
[2]
  protein stability index: 3.67 ± 0.38

## NFSLATNTKYSVYIYVYFHTKLTS [R3HDM1]
[1]
  protein stability index: 2.6 ± 0.41
[2]
  protein stability index: 2.36 ± 0.9

## LPEAPPKKFLTLGSKFRYSGRTQA [EPB41L3]
[1]
  protein stability index: 3 ± 0.28
[2]
  protein stability index: 3.18 ± 0.39

## KALWEDKTSLWEEENALWEEERAF [CCDC70]
[1]
  protein stability index: 3.79 ± 0.18
[2]
  protein stability index: 3.87 ± 0.14

## RFSSGGACGLGGGYGGGFSSSSSF [KRT16]
[1]
  protein stability index: 2.38 ± 0.64
[2]
  protein stability index: 2.1 ± 0.35

## NVKYLKKILDELEKVLDQVETELQ [GDAP1]
[1]
  protein stability index: 4.25 ± 0.077
[2]
  protein stability index: 4.23 ± 0.14

## WPSAKSAGWTLATLGEQGLPHQSH [SCNN1D]
[1]
  protein stability index: 3.36 ± 0.43
[2]
  protein stability index: 3.17 ± 0.4

## DPGVQELEALIDTIQKQLKDHSCK [EFHC1]
[1]
  protein stability index: 3.93 ± 0.28
[2]
  protein stability index: 3.97 ± 0.25

## AKYCGHLYGLGSGSSYVQNGTGNA [CNOT7]
[1]
  protein stability index: 2.8 ± 0.3
[2]
  protein stability index: 2.78 ± 0.28

## IQKAYDELRLQSEAFKKHSLDLLS [CCDC89]
[1]
  protein stability index: 2.68 ± 0.31
[2]
  protein stability index: 2.91 ± 0.23

## LPRRPRKGSSELGFPRVAPEDEVI [RNF208]
[1]
  protein stability index: 4.37 ± 0.23
[2]
  protein stability index: 4.33 ± 0.15

## DQWNILQTPILEGRSGPGCAVLDD [KLHL14]
[1]
  protein stability index: 4.37 ± 0.34
[2]
  protein stability index: 4.16 ± 0.26

## VVHRSDEQQHYFNTPFQLSIAPPE [PPTC7]
[1]
  protein stability index: 3.96 ± 0.28
[2]
  protein stability index: 4 ± 0.24

## QRLLFSGASDNSIIMWDIGGRKGR [WDFY1]
[1]
  protein stability index: 3.16 ± 0.55
[2]
  protein stability index: 3.39 ± 0.46

## RGFQEENKALWENNKLKLQQKLVI [CBY2]
[1]
  protein stability index: 3 ± 0.29
[2]
  protein stability index: 3.15 ± 0.43

## RKSMLDAGPDSWGSDAEQSTSGQP [LCOR]
[1]
  protein stability index: 5.21 ± 0.091
[2]
  protein stability index: 5.15 ± 0.24

## SFSEEGAVGYSSDSETLDLEEAEG [NFE2L1]
[1]
  protein stability index: 5.75 ± 0.38
[2]
  protein stability index: 5.18 ± 0.5

## NYRIAGARLMRSNYPPPLSSAALR [C6orf223]
[1]
  protein stability index: 3.16 ± 0.41
[2]
  protein stability index: 3.2 ± 0.3

## DPQNGFDVNNLDPDLRSLFSRAGI [WAS]
[1]
  protein stability index: 3.93 ± 0.3
[2]
  protein stability index: 3.81 ± 0.32

## IFQMVIICLMCVHSLERAGSKQYS [SMG5]
[1]
  protein stability index: 3.21 ± 0.28
[2]
  protein stability index: 3.27 ± 0.48

## VAGEGVRRKGEMGLSAEDGVWAVI [TRIM15]
[1]
  protein stability index: 2.51 ± 0.22
[2]
  protein stability index: 2.55 ± 0.2

## QSPTLEFLLRNSQRTVGQLMELCR [EDARADD]
[1]
  protein stability index: 2.49 ± 0.21
[2]
  protein stability index: 2.56 ± 0.26

## CTLGDPNKLPEGVPQPARMPYISD [KLHL20]
[1]
  protein stability index: 4.13 ± 0.24
[2]
  protein stability index: 4.18 ± 0.15

## LANACLPVRTTNKISKQFVAPADV [ZSWIM9]
[1]
  protein stability index: 3.27 ± 0.2
[2]
  protein stability index: 3.5 ± 0.21

## QMKQKVQSLYQEVFGRLRDENGRP [NFE2L1]
[1]
  protein stability index: 2.66 ± 0.35
[2]
  protein stability index: 3.65 ± 0.48

## ASGNATQTESGSEEVSSTVHIETF [C10orf62]
[1]
  protein stability index: 5.11 ± 0.21
[2]
  protein stability index: 5.27 ± 0.2

## PELNNNQYNRSSNSNGGNLNSPPG [CDC14A]
[1]
  protein stability index: 4.98 ± 0.15
[2]
  protein stability index: 4.84 ± 0.27

## RRLEQRWGFGLEELYGLALRFFKE [ACBD3]
[1]
  protein stability index: 2.53 ± 0.8
[2]
  protein stability index: 2.31 ± 0.63

## TGIIDSLTISPKAARVGLLQYSTQ [MATN2]
[1]
  protein stability index: 2.72 ± 1.3
[2]
  protein stability index: 2.43 ± 0.23

## LLQLPDTKVGSFMIRESETKKGFY [SLA]
[1]
  protein stability index: 2.75 ± 0.25
[2]
  protein stability index: 2.95 ± 0.047

## MVVDFWTWEQTFQELIQEAKPRAT [RTP4]
[1]
  protein stability index: 2.5 ± 0.49
[2]
  protein stability index: 2.2 ± 0.36

## RSSGSEGTPADTGDLSPGHGASAP [PWWP2B]
[1]
  protein stability index: 5.38 ± 0.34
[2]
  protein stability index: 5.35 ± 0.2

## EQLERINDALSCEYECRRRMLMKR [FAM98B]
[1]
  protein stability index: 3.09 ± 0.37
[2]
  protein stability index: 3.14 ± 0.33

## AAWLTLWVFGTSFLPFLLCAVLLS [FADS1]
[1]
  protein stability index: 2.97 ± 0.53
[2]
  protein stability index: 3.15 ± 0.69

## GMGGIQNEKETMQSLNDRLASYLD [KRT18]
[1]
  protein stability index: 3.86 ± 0.18
[2]
  protein stability index: 3.84 ± 0.23

## EEDIQGPTKADTEKWAEGGGHSRE [CHGB]
[1]
  protein stability index: 5.52 ± 0.17
[2]
  protein stability index: 5.38 ± 0.28

## QTRMAVSLTAAETLALQGTQGQEK [ZNF232]
[1]
  protein stability index: 5.15 ± 0.24
[2]
  protein stability index: 4.98 ± 0.21

## KITDFQLHASTVKRYGLGAHRGRL [CPXM2]
[1]
  protein stability index: 3.133 ± 0.018
[2]
  protein stability index: 3.22 ± 0.53

## FIVGMVGNATLLRIIYQNKCMRNG [EDNRA]
[1]
  protein stability index: 2.98 ± 0.15
[2]
  protein stability index: 2.51 ± 0.68

## MFLAMLAVVSCASIGSGEPPTGN [CDK11A]
treatment: DMSO, c terminus: native
  protein stability index: 2.67 ± 0.36
treatment: MLN4924 1 uM, 8 h, c terminus: native
  protein stability index: 2.46 ± 0.39

## IPGKVIDEIYRVLRYVNSTRAPQR [FBXO28]
[1]
  protein stability index: 2.2 ± 0.21
[2]
  protein stability index: 2.41 ± 0.28

## QEEAIAQFPYVEFTGRDSITCLTC [TMEM106C]
[1]
  protein stability index: 2.5 ± 0.21
[2]
  protein stability index: 2.57 ± 0.24

## SSPDDKLLTSPRAINNLVLQGCSS [KLHL14]
[1]
  protein stability index: 3.99 ± 0.17
[2]
  protein stability index: 4.14 ± 0.23

## PLGTQVAVNAHQWLDNPERWNKVK [SEPHS2]
[1]
  protein stability index: 3.65 ± 0.084
[2]
  protein stability index: 3.61 ± 0.26

## ALNSMLRRRFREKKKAIQEEEERD [YJU2B]
[1]
  protein stability index: 3.57 ± 0.12
[2]
  protein stability index: 3.59 ± 0.1
